Article PMC2193694 (The Journal of Experimental Medicine, 2002)

target: B7-H2mIg (extracellular domain of human B7-H2 linked to mouse IgG2a Fc portion) (human) (UniProt O75144); experiment: ELISA

Molecule	percentage of B7-H2 binding activity (of ICOSIg)
ICOSIg mutant P117S (from UniProt Q9Y6W8 21-140) (Fc fusion)	< 0.1%

target: T1, B7-H2mIg (extracellular domain of human B7-H2 linked to mouse IgG2a Fc portion) (human, UniProt O75144 19-256); experiment: ELISA
T1 sequence: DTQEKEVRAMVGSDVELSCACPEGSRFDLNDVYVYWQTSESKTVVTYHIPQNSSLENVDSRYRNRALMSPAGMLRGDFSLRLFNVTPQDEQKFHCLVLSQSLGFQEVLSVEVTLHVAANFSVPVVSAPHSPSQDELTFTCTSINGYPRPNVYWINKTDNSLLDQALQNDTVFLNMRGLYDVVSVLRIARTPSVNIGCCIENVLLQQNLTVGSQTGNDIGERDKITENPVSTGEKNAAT

Molecule	percentage of B7-H2 binding activity (of ICOSIg)
ICOSIg (extracellular domain of human ICOS fused to the CH2-CH3 portion of human IgG1) (Fc fusion) EINGSANYEMFIFHNGGVQILCKYPDIVQQFKMQLLKGGQILCDLTKTKGSGNTVSIKSLKFCHSQLSNNSVSFFLYNLDHSHANYYFCNLSIFDPPPFKVTLTGGYLHIYESQLCCQLK	100%
ICOSIg mutant F114S (Fc fusion) EINGSANYEMFIFHNGGVQILCKYPDIVQQFKMQLLKGGQILCDLTKTKGSGNTVSIKSLKFCHSQLSNNSVSFFLYNLDHSHANYYFCNLSISDPPPFKVTLTGGYLHIYESQLCCQLK	< 0.1%
ICOSIg mutant F119S (Fc fusion) EINGSANYEMFIFHNGGVQILCKYPDIVQQFKMQLLKGGQILCDLTKTKGSGNTVSIKSLKFCHSQLSNNSVSFFLYNLDHSHANYYFCNLSIFDPPPSKVTLTGGYLHIYESQLCCQLK	< 0.1%
ICOSIg mutant K69S (Fc fusion) EINGSANYEMFIFHNGGVQILCKYPDIVQQFKMQLLKGGQILCDLTKTSGSGNTVSIKSLKFCHSQLSNNSVSFFLYNLDHSHANYYFCNLSIFDPPPFKVTLTGGYLHIYESQLCCQLK	3%
ICOSIg mutant D64S (Fc fusion) EINGSANYEMFIFHNGGVQILCKYPDIVQQFKMQLLKGGQILCSLTKTKGSGNTVSIKSLKFCHSQLSNNSVSFFLYNLDHSHANYYFCNLSIFDPPPFKVTLTGGYLHIYESQLCCQLK	6%
ICOSIg mutant D115S (Fc fusion) EINGSANYEMFIFHNGGVQILCKYPDIVQQFKMQLLKGGQILCDLTKTKGSGNTVSIKSLKFCHSQLSNNSVSFFLYNLDHSHANYYFCNLSIFSPPPFKVTLTGGYLHIYESQLCCQLK	< 0.1%
ICOSIg mutant K67S (Fc fusion) EINGSANYEMFIFHNGGVQILCKYPDIVQQFKMQLLKGGQILCDLTSTKGSGNTVSIKSLKFCHSQLSNNSVSFFLYNLDHSHANYYFCNLSIFDPPPFKVTLTGGYLHIYESQLCCQLK	< 0.1%
ICOSIg homologue replacement mutant RP49-52 (ICOS 49-52 replaced by CD28 49-52) (Fc fusion) EINGSANYEMFIFHNGGVQILCKYPDIVREFRMQLLKGGQILCDLTKTKGSGNTVSIKSLKFCHSQLSNNSVSFFLYNLDHSHANYYFCNLSIFDPPPFKVTLTGGYLHIYESQLCCQLK	9%
ICOSIg mutant Q50S (Fc fusion) EINGSANYEMFIFHNGGVQILCKYPDIVQSFKMQLLKGGQILCDLTKTKGSGNTVSIKSLKFCHSQLSNNSVSFFLYNLDHSHANYYFCNLSIFDPPPFKVTLTGGYLHIYESQLCCQLK	6%
ICOSIg mutant F51S (Fc fusion) EINGSANYEMFIFHNGGVQILCKYPDIVQQSKMQLLKGGQILCDLTKTKGSGNTVSIKSLKFCHSQLSNNSVSFFLYNLDHSHANYYFCNLSIFDPPPFKVTLTGGYLHIYESQLCCQLK	< 0.1%
ICOSIg mutant Q49S (Fc fusion) EINGSANYEMFIFHNGGVQILCKYPDIVSQFKMQLLKGGQILCDLTKTKGSGNTVSIKSLKFCHSQLSNNSVSFFLYNLDHSHANYYFCNLSIFDPPPFKVTLTGGYLHIYESQLCCQLK	33%
